Data from publication PMC3551895.

Target: vibrillin βγ-crystallin domain (Vibrio cholerae)
Assay: SEC

“vibrillin βγ-crystallin domain (domain or fragment)” was tested. Which stoichiometry N did it give?
Its stoichiometry N is 6.
